{"source": "paper PMC6277545", "about": "“Structural Basis for the Limited Response to Oxidative and Thiol-Conjugating Agents by Triosephosphate Isomerase From the Photosynthetic Bacteria Synechocystis” (Frontiers in Molecular Biosciences, 2018)", "proteins": {"B1": {"name": "SyTPI (Synechocystis sp. PCC 6803 substr. Kazusa; C127A/C176S/C42A) (protein)", "chain": "MRKIIIAGNWKMHKTQAEAQAFLQGFKPLIEDAAESREVVLAVPFTDLSGMSQQLHGGRVRLGAQNVHWEASGAYTGEISAAMLTEIGIHYVVIGHSERRQYFGETDETANLRVLAAQKAGLIPILAVGESKAQRDAGETEQVIVDQVKKGLVNVDQSNLVIAYEPIWAIGTGDTSAATEANRVIGLIREQLTNSQVTIQYGGSVNANNVDEIMAQPEIDGALVGGASLEPQSFARIVNFQP", "notes": "full length, codon-optimised, E. coli BL21(DE3) delta-tpi; His tag cut by PreScission, extra Gly-Pro-His before Met1; homodimer 54 kDa"}, "B2": {"name": "SyTPI (Synechocystis sp. PCC 6803 substr. Kazusa; C127A/C42A) (protein)", "chain": "B1 chain with S176C", "notes": "as for B1"}, "B3": {"name": "SyTPI (Synechocystis sp. PCC 6803 substr. Kazusa; C176S/C42A) (protein)", "chain": "B1 chain with A127C", "notes": "as for B1"}, "B4": {"name": "SyTPI (Synechocystis sp. PCC 6803 substr. Kazusa; C127A) (protein)", "chain": "B1 chain with A42C, S176C", "notes": "as for B1"}, "B5": {"name": "SyTPI (Synechocystis sp. PCC 6803 substr. Kazusa) (protein)", "chain": "B1 chain with A42C, A127C, S176C", "notes": "as for B1"}, "B6": {"name": "SyTPI (Synechocystis sp. PCC 6803 substr. Kazusa; C127A/C176S) (protein)", "chain": "B1 chain with A42C", "notes": "as for B1"}, "B7": {"name": "SyTPI (Synechocystis sp. PCC 6803 substr. Kazusa; C42A) (protein)", "chain": "B1 chain with A127C, S176C", "notes": "as for B1"}}, "note": "Substitutions are numbered along the chain they refer to. Numbers in names are those of the source.", "data": [{"substrate": "O=CC(O)COP(=O)(O)O", "assay": "coupled alpha-glycerophosphate dehydrogenase assay, A340", "format": "biochemical, Synechocystis sp. PCC 6803", "conditions": "0.1 M TEA pH 7.4, 10 mM EDTA, 0.2 mM NADH, G3P 0-5 mM, G3P to DHAP", "excerpt": "coupled alpha-glycerophosphate dehydrogenase assay, A340 on SyTPI", "units": {"Km": "µM", "kcat": "s⁻¹", "kcat/Km": "M⁻¹ s⁻¹"}, "values": [{"protein": "B1", "Km": "1400 ± 150", "kcat": "21.3 ± 1", "kcat/Km": 15200}, {"protein": "B2", "Km": "1100 ± 30", "kcat": "1630 ± 53", "kcat/Km": "1.48e+06"}, {"protein": "B3", "Km": "1460 ± 20", "kcat": "2130 ± 62", "kcat/Km": "1.46e+06"}, {"protein": "B4", "Km": "1040 ± 80", "kcat": "1770 ± 56", "kcat/Km": "1.71e+06"}, {"protein": "B5", "Km": "800 ± 20", "kcat": "1850 ± 43", "kcat/Km": "2.31e+06"}, {"protein": "B6", "Km": "1190 ± 80", "kcat": "683 ± 6", "kcat/Km": 573000}, {"protein": "B7", "Km": "1010 ± 30", "kcat": "1780 ± 42", "kcat/Km": "1.76e+06"}]}]}
